# From patent publication US20250388666A1 (BRIGHAM AND WOMEN S HOSPITAL, published 2025)
# Positions count from the first letter of the chain named. Names and notes keep the numbering of the source. Values joined by “and” are separate entries in the source; they are usually repeats but may differ in a detail not shown here. Identical values can stand only once.
# T1: CEACAM1 (Sino Biological) (human, UniProt P13688 35-428, limits assumed)
# T1 construct: may be the same as CEACAM1-HIS; also called hCEACAM1; biotinylated soluble CEACAM1
# T1 sequence: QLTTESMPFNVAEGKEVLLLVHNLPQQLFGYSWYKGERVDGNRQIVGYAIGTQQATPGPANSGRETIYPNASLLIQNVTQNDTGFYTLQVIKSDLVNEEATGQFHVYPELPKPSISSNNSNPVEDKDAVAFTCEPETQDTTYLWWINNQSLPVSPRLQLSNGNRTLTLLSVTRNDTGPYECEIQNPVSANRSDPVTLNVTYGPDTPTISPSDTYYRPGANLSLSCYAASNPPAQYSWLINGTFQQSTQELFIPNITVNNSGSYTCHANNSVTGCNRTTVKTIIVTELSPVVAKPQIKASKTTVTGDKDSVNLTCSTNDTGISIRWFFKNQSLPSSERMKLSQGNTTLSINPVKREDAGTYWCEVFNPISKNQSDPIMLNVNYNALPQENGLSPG
# B1: He9/L2 (antibody, IgG4, V domains shown)
# VH: EVQLLESGGGLVQPGGSLRLSCAASGFSFSDYYLYWVRQAPGKGLEWVATISVGGGQTSYADSVKGRFTISRDNSKNTLYLQMNSLRAEDTAMYYCARAMYYGPAWFAYWGQGTLVTVSS
# VL: DIVMTQSPDSLAVSLGERATINCKSSQSLLNSANQKNYLAWYQQKPGQPPKLLIYFASTRESGVPDRFSGSGSGTDFTLTISSLQAEDVAVYYCQSHYPFPYTFGGGTKVEIK
# notes: IgG4 S241P, kappa
# B2: He13/L19 (antibody, IgG4, V domains shown)
# VH: B1 VH with A97T, A99G, M100L, A105S, F107L
# VL: B1 VL with Y98I, P99Y, F100P, P101N, Y102F
# notes: IgG4 S241P, kappa
# B3: He17/L3 (antibody, IgG4, V domains shown)
# VH: B1 VH with A97T, M100R, Y101T
# VL: B1 VL with Y98F, Y102F
# notes: IgG4 S241P, kappa
# B4: He9/L5 (antibody, IgG4, V domains shown)
# VH: B1 VH
# VL: B1 VL with P101A, Y102F
# notes: IgG4 S241P, kappa
# B5: He17/L2 (antibody, IgG4, V domains shown)
# VH: B1 VH with A97T, M100R, Y101T
# VL: B1 VL
# notes: IgG4 S241P, kappa
# B6: He14/L5 (antibody, IgG4, V domains shown)
# VH: B1 VH with A97T, A99G, M100L, A105S, F107V
# VL: B1 VL with P101A, Y102F
# notes: IgG4 S241P, kappa
# B7: He9/Parent VL (antibody, IgG4, V domains shown)
# VH: B1 VH
# VL: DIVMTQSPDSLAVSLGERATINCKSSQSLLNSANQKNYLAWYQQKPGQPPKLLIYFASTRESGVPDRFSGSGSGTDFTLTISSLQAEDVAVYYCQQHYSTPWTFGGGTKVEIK
# notes: IgG4 S241P, kappa
# B8: He9/L20 (antibody, IgG4, V domains shown)
# VH: B1 VH
# VL: B1 VL with Y98F, F100Y, Y102L
# notes: IgG4 S241P, kappa
# B9: He13/L3 (antibody, IgG4, V domains shown)
# VH: B1 VH with A97T, A99G, M100L, A105S, F107L
# VL: B1 VL with Y98F, Y102F
# notes: IgG4 S241P, kappa
# B10: He13/L1 (antibody, IgG4, V domains shown)
# VH: B1 VH with A97T, A99G, M100L, A105S, F107L
# VL: B1 VL with P101Y
# notes: IgG4 S241P, kappa
# B11: He17/L4#2 (antibody, IgG4, V domains shown)
# VH: B1 VH with A97T, M100R, Y101T
# VL: B1 VL with F100Y
# notes: IgG4 S241P, kappa
# B12: He14/L17 (antibody, IgG4, V domains shown)
# VH: B1 VH with A97T, A99G, M100L, A105S, F107V
# VL: B1 VL with F100Y
# notes: IgG4 S241P, kappa
# B13: He9/L16 (antibody, IgG4, V domains shown)
# VH: B1 VH
# VL: B1 VL with F100Y, Y102F
# notes: IgG4 S241P, kappa
# B14: He13/L18 (antibody, IgG4, V domains shown)
# VH: B1 VH with A97T, A99G, M100L, A105S, F107L
# VL: B1 VL with Y98F, F100Y, Y102F
# notes: IgG4 S241P, kappa
# B15: He13/L6 (antibody, IgG4, V domains shown)
# VH: B1 VH with A97T, A99G, M100L, A105S, F107L
# VL: B1 VL with P101S, Y102F
# notes: IgG4 S241P, kappa
# B16: He14/L20 (antibody, IgG4, V domains shown)
# VH: B1 VH with A97T, A99G, M100L, A105S, F107V
# VL: B1 VL with Y98F, F100Y, Y102L
# notes: IgG4 S241P, kappa
# B17: He14/L4#2 (antibody, IgG4, V domains shown)
# VH: B1 VH with A97T, A99G, M100L, A105S, F107V
# VL: B1 VL with F100Y
# notes: IgG4 S241P, kappa
# B18: He13/L16 (antibody, IgG4, V domains shown)
# VH: B1 VH with A97T, A99G, M100L, A105S, F107L
# VL: B1 VL with F100Y, Y102F
# notes: IgG4 S241P, kappa
# B19: He14/L16 (antibody, IgG4, V domains shown)
# VH: B1 VH with A97T, A99G, M100L, A105S, F107V
# VL: B1 VL with F100Y, Y102F
# notes: IgG4 S241P, kappa
# B20: He9/L4 #1 (antibody, IgG4, V domains shown)
# VH: B1 VH
# VL: B1 VL with Y98F, F100Y, P101Y
# notes: IgG4 S241P, kappa
# B21: He13/L5 (antibody, IgG4, V domains shown)
# VH: B1 VH with A97T, A99G, M100L, A105S, F107L
# VL: B1 VL with P101A, Y102F
# notes: IgG4 S241P, kappa
# B22: He14/L19 (antibody, IgG4, V domains shown)
# VH: B1 VH with A97T, A99G, M100L, A105S, F107V
# VL: B1 VL with Y98I, P99Y, F100P, P101N, Y102F
# notes: IgG4 S241P, kappa
# B23: He9/L18 (antibody, IgG4, V domains shown)
# VH: B1 VH
# VL: B1 VL with Y98F, F100Y, Y102F
# notes: IgG4 S241P, kappa
# B24: He14/Parent VL (antibody, IgG4, V domains shown)
# VH: B1 VH with A97T, A99G, M100L, A105S, F107V
# VL: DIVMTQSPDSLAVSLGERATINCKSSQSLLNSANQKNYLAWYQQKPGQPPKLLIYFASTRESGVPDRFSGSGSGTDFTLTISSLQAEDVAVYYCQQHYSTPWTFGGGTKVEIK
# notes: IgG4 S241P, kappa
# B25: He13/L17 (antibody, IgG4, V domains shown)
# VH: B1 VH with A97T, A99G, M100L, A105S, F107L
# VL: B1 VL with F100Y
# notes: IgG4 S241P, kappa
# B26: He17/L4 #1 (antibody, IgG4, V domains shown)
# VH: B1 VH with A97T, M100R, Y101T
# VL: B1 VL with Y98F, F100Y, P101Y
# notes: IgG4 S241P, kappa
# B27: He13/L2 (antibody, IgG4, V domains shown)
# VH: B1 VH with A97T, A99G, M100L, A105S, F107L
# VL: B1 VL
# notes: IgG4 S241P, kappa
# B28: He9/L19 (antibody, IgG4, V domains shown)
# VH: B1 VH
# VL: B1 VL with Y98I, P99Y, F100P, P101N, Y102F
# notes: IgG4 S241P, kappa
# B29: He13/Parent VL (antibody, IgG4, V domains shown)
# VH: B1 VH with A97T, A99G, M100L, A105S, F107L
# VL: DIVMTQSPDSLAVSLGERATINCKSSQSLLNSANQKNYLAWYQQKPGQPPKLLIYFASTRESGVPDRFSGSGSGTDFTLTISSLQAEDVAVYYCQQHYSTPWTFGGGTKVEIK
# notes: IgG4 S241P, kappa
# B30: He13/L4 #1 (antibody, IgG4, V domains shown)
# VH: B1 VH with A97T, A99G, M100L, A105S, F107L
# VL: B1 VL with Y98F, F100Y, P101Y
# notes: IgG4 S241P, kappa
# B31: He14/L4 #1 (antibody, IgG4, V domains shown)
# VH: B1 VH with A97T, A99G, M100L, A105S, F107V
# VL: B1 VL with Y98F, F100Y, P101Y
# notes: IgG4 S241P, kappa
# B32: He14/L18 (antibody, IgG4, V domains shown)
# VH: B1 VH with A97T, A99G, M100L, A105S, F107V
# VL: B1 VL with Y98F, F100Y, Y102F
# notes: IgG4 S241P, kappa
# B33: He13/L4#2 (antibody, IgG4, V domains shown)
# VH: B1 VH with A97T, A99G, M100L, A105S, F107L
# VL: B1 VL with F100Y
# notes: IgG4 S241P, kappa
# B34: He14/L2 (antibody, IgG4, V domains shown)
# VH: B1 VH with A97T, A99G, M100L, A105S, F107V
# VL: B1 VL
# notes: IgG4 S241P, kappa
# B35: He14/L6 (antibody, IgG4, V domains shown)
# VH: B1 VH with A97T, A99G, M100L, A105S, F107V
# VL: B1 VL with P101S, Y102F
# notes: IgG4 S241P, kappa
# B36: He14/L3 (antibody, IgG4, V domains shown)
# VH: B1 VH with A97T, A99G, M100L, A105S, F107V
# VL: B1 VL with Y98F, Y102F
# notes: IgG4 S241P, kappa
# B37: He13/L20 (antibody, IgG4, V domains shown)
# VH: B1 VH with A97T, A99G, M100L, A105S, F107L
# VL: B1 VL with Y98F, F100Y, Y102L
# notes: IgG4 S241P, kappa
# Target: T1, CEACAM1 (Sino Biological)
# Test: SPR single-cycle
# Procedure, shortened: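 Humanized affinity-matured IgGs from crude supernatants captured on Protein A to ~100 RU, with CEACAM1 analyte injected at 25–100 nM (three-point, two-fold) in HBS-P+ without regeneration. 200 s association per injection, 300 s single dissociation; reference-channel and blank subtracted.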
Kd,fold better than Parent (KD) [fold],Binder
70 nM,2.27,B1
129 nM,1.23,B2
95 nM,1.68,B3
44 nM,3.61,B4
82 nM,1.95,B5
102 nM,1.56,B6
262 nM,0.61,B7
44 nM,3.61,B8
108 nM,1.47,B9
126 nM,1.26,B10
258 nM,2.14,B11
97 nM,1.64,B12
32 nM,5.05,B13
103 nM,1.54,B14
105 nM,1.51,B15
114 nM,1.39,B16
396 nM,1.39,B17
105 nM,1.51,B18
93 nM,1.7,B19

Kd,fold better than Parent (KD) [fold],Binder
78 nM,2.05,B20
95 nM,1.68,B21
87 nM,1.83,B22
36 nM,4.4,B23
88 nM,1.8,B24
372 nM and 159 nM,,B25
165 nM,0.96,B26
98 nM,1.62,B27
193 nM,0.82,B28
91 nM,1.74,B29
115 nM,1.38,B30
93 nM,1.7,B31
91 nM,1.75,B32
289 nM,1.91,B33
102 nM,1.56,B34
111 nM,1.43,B35
107 nM,1.49,B36
109 nM,1.46,B37
